Results on one molecule are retold here after patent publication US10414821 (dated 2019).

For one assay, the target named is PD-1 protein (UniProt Q15116 25-167). The experiment in a line: blocking ELISA (PD-1/PD-L1).
Assay [1] concerns the target purified recombinant PD-1 fusion protein (Sino Biological Inc, Cat #: 10377-H08H) (human, UniProt Q15116 25-170). As to the kind of experiment: ELISA. (In general: An ELISA detects its analyte on a solid surface through an enzyme-linked reagent.)

Sequence of PD-1 protein (Q15116 25-167): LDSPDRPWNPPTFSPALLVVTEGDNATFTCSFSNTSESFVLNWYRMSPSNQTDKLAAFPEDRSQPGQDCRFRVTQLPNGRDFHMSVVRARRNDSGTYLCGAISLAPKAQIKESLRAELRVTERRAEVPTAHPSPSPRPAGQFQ
Sequence of purified recombinant PD-1 fusion protein (Sino Biological Inc, Cat #: 10377-H08H) (Q15116 25-170): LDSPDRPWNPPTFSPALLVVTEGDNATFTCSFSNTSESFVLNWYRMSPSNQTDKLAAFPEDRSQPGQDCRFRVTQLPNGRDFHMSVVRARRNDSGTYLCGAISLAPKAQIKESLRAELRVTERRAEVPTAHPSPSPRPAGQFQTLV

B1: BA08-1 (antibody, V domains shown)
VH: QVQLVQSGAEVKKPGASVKVSCKASGYTFTSYYMYWVRQAPGQGLEWMGGVNPSNGGTNFNEKFKSRVTITADKSTSTAYMELSSLRSEDTAVYYCARRDYRYDMGFDYWGQGTTVTVSS
VL: EIVLTQSPATLSLSPGERATISCRASKGVSTSGYSYLHWYQQKPGQAPRLLIYLASYLESGVPARFSGSGSGTDFTLTISSLEPEDFATYYCQHSRELPLTFGTGTKVEIK
For the molecule B1, in the assay with PD-1 protein, the midpoint of inhibition, the IC50, lay at 0.288 nM. The EC50 (as a rule, the concentration needed to bring the measured effect to its halfway point) in assay [1] was found to be 0.0371 nM.
